Assay results reported in paper PMC2323369, “Identification of a GTP-bound Rho specific scFv molecular sensor by phage display selection” (BMC Biotechnology, 2008).

What was measured:
[1] = molecular target: T1, GST-RhoAQ63L (UniProt P61586 1-193, Q63L); assay: ELISA + SPR; competition ELISA on a RhoAQ63L coated plate (scFvC1-N1N2 0.4 μM competed by increasing GST-RBD); KD of GST-RBD also determined by SPR on GST-RhoAQ63L
T1 construct: GTP-locked mutant; source: E. coli BL21, purified on glutathione-coated plates; not shown: GST, N-terminal, kept
T1 sequence (P61586 whole entry Q63L): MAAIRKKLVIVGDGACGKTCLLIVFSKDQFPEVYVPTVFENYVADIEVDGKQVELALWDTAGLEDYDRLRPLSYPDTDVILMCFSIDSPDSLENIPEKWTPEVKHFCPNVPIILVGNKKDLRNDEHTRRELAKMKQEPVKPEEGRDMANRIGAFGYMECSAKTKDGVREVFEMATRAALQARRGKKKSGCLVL

[2] = molecular target: T2, GST-RhoC (wild type) (Homo sapiens (assumed), UniProt P08134); assay: ELISA; GST proteins loaded with 200 μM GTPγS for 30 min and purified on glutathione ELISA plates; 10^10 clones of C1 phages in each well; anti-M13-HRP, TMB; settings: one partner purified
T2 construct: Loaded with GDP or GTPγS as told in each assay; source: E. coli BL21, purified on glutathione-coated plates; not shown: GST, N-terminal, kept
T2 sequence (P08134 whole entry): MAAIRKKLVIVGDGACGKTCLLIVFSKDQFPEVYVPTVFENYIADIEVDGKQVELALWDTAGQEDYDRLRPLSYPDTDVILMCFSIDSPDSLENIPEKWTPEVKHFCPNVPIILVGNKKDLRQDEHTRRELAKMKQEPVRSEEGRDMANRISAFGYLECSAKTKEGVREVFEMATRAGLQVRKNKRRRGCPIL

[3] = molecular target: T3, GST-RhoB (wild type) (Homo sapiens (assumed), UniProt P62745); assay: as above; settings: one partner purified
T3 construct: Loaded with GDP, GTP or GTPγS as told in each assay; The immunoprecipitation speaks only of recombinant RhoB without naming the GST; also called recombinant RhoB; source: E. coli BL21, purified on glutathione-coated plates; crude bacterial lysate (immunoprecipitation); not shown: GST, N-terminal, kept
T3 sequence (P62745 whole entry): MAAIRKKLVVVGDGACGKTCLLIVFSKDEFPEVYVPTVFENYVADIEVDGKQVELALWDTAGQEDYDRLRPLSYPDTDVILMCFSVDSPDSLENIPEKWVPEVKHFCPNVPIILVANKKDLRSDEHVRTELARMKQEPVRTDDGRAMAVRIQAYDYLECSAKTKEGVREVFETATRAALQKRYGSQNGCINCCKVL

[4] = molecular target: T4, GST-Rac1 (Homo sapiens (assumed), UniProt P63000); assay: as above; settings: one partner purified
[5] = molecular target: T5, GST-Cdc42 (Homo sapiens (assumed), UniProt P60953); assay: as above; settings: one partner purified
T5 construct: Cdc42, from a pGEX plasmid provided by Dr. A. Blangy; Loaded with GDP, GTP or GTPγS as told in each assay; also called GTP-Cdc42; source: E. coli BL21, purified on glutathione-coated plates
T5 sequence (P60953 whole entry): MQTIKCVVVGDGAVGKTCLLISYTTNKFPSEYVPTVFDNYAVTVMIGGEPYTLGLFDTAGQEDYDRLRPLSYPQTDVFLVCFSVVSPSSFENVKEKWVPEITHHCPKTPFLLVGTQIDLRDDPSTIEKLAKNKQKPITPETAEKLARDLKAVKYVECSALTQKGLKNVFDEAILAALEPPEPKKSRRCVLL

[6] = molecular target: T3, GST-RhoB (wild type); assay: pull-down; scFv C1-N1N2 from crude bacterial extract fixed on Ni-NTA beads; crude bacterial lysate with recombinant RhoA or RhoB loaded with 0.2 mM GTPγS (PBS, 10 mM EDTA, 30 min, 30°C); 45 min at 4°C; blot with anti-RhoA or anti-RhoB; called immunoprecipitation; settings: one partner purified
[7] = molecular target: T4, GST-Rac1; assay: ELISA; competition ELISA on a RhoAQ63L coated plate: scFvC1-N1N2 (0.4 μM) competed by increasing concentrations of GST-RBD, GDP bound RhoA, GTP bound Cdc42, GTP bound Rac1
[8] = molecular target: T5, GST-Cdc42; assay: as above

B1: GST-RBD (Rho binding domain of Rhotekin fused to GST) (domain or fragment)
chain: ILEDLNMLYIRQMALSLEDTELQRKLDHEIRMRDGACKLLAACSQREQALEATKSLLVCNSRILSYMGELQRRKEAQVLEKTG
- Kd [1]: 0.2 ± 0.2 µM

B2: C1 phage (scFv C1-pIII fusion protein displayed on phage) (scFv, V domains shown)
VH: not shown
VL: SSELTQDPAVSVALGQTVRITCQGDSLRSYYASWYQQKPGQAPVLVIYGKNNRPSGIPDRFSGSSSGNTASLTITGAQAEDEADYYCNSRDSSGNHAYVFGGGTKLTVL
notes: VH of scFv C1 (human synthetic, Griffin.1 library); linker between VH and VL of the Griffin.1 library vector pHEN2; VL of scFv C1 (human synthetic, Griffin.1 library); source: monoclonal phage from E. coli supernatant (Griffin.1 library, phagemid pHEN2); not shown: 6xHis, C-terminal, kept; myc, C-terminal, kept
- binding result [2]: binds
- binding result [3]: binds
- binding result [4]: no binding (tested: 10^10 clones of C1 phages)
- binding result [5]: no binding (tested: 10^10 clones of C1 phages)

B3: scFv C1-N1N2 (scFv, V domains shown)
VH: not shown
VL: B2 VL
notes: VH of scFv C1, as in m1; linker between VH and VL of the vector pHEN2, as in m1; VL of scFv C1, as in m1; N-terminal portions N1 and N2 of the phage coat protein pIII of M13 (vector pHEN2); the C-terminal portion of pIII removed; The amber codon between the tags and gene III was mutated so that translation runs into pIII; an EcoRI site was put in after N2; Predicted mass 60 kDa; Smaller proteins …
- binding result [6]: binds
- Kd [7]: > 50 µM
- binding result [7]: no binding (tested: > 50 μM)
- Kd [8]: > 50 µM
- binding result [8]: no binding (tested: > 50 μM)
